The values that follow come from the nanobody polyreactivity screen of Harvey et al. (2022).

The data set is described as follows: yeast display, Sf9 membrane polyspecificity reagent, FACS + sequencing; frameworks hold sequencing errors. The method, boiled down: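 Nanobodies from a synthetic yeast display library (Saccharomyces cerevisiae BJ5465), induced 36–48 hours with galactose, were stained 1 hour at 4 °C with 10% biotinylated, detergent-solubilized Sf9 membrane reagent, enriched on streptavidin microbeads, then FACS-sorted. Anti-HA (expression) and streptavidin (reagent binding) fluorescence set low and high (top ~1%) gates. Polyreactivity labels come from the gate of origin. Genes were colony-PCR amplified, MiSeq 2 × 250 sequenced and filtered by CDR length.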
As to “QVQLVESGGGLVQAGGSLRLSCAASGSIVRYNTMGWYRQAPGKERELVASIRIGGSTYYADSVKGRFTISRDNAKNTVYLQMNSLKAEDTAVYYCAVRPYRSAGGSVTRGAYYYWGQGTQVTVSS”, the “polyreactivity (PSR sort gate)” value was “high polyreactivity”.
The entry for “QVQLVESGGGLVQAGGSLRLSCAASGSIVYYAMGWYRQAPGKERELVAAINTSGGSTYYADSVKGRFTISRDNAKNTVYLQMNSLKPEDTAVYYCAAVYVGYITGFKRGYWGQGTQVTVSS” is “high polyreactivity”; for “QVQLVESGGGLVQAGGSLRLSCAASGSIYDSYDMGWYRQAPGKERELVAAITSGGSTNYADSVKGRFTISRDNAKITVYLQMNSLKPEDTAVYYCAAYYWYPVYYGYDYWGQGTQVTVSS” it is “low polyreactivity”; for “QVQLVESGGGLVQAGGSLRLSCAASGSIYGDNAMGWYRQAPGKERELVAAINYNGGRTYYADSVKGRFTISRDTAKNTVYLQMNSLKPEDTAVYSCAKDNYQAPVQQYPFDYWGQGTQVTVSS” it is “low polyreactivity”.
The entry for “QVQLVESGGGLVQAGGSLRLSCAASGSIYGYAMGWYRQAPGKERELVAAISGRGGRTYYADSVKGRFTISRDNAKNTVYLQMNSLKPEDTAVYYCNVQWRYPYHYTVDYWGQGTQVTVSS” is “high polyreactivity”.
“QVQLVESGGGLVQAGGSLRLSCAASGSIYGYYAMGWSRQAPGKERELVAAISWSDGSTYYADSVKGRFTISRDNAKNTVYLQMNSLKPEDTAVYYCAARFTPYITSDDGHYDYWGQGTQVTVSS”: the “polyreactivity (PSR sort gate)” value was “low polyreactivity”.
The entry for “QVQLVESGGGLVQAGGSLRLSCAASGSIYHYYAMGWYRQAPGKERELVAAISWSGGRTNYADSVKGRFTISRDNAKNTVYLQMNSLKPEDTAVYYCAARARYPNWTYYYWGQGTQVTVSS” is “high polyreactivity”.
As to “QVQLVESGGGLVQAGGSLRLSCAASGSIYPNYTMGWYRQAPGKERQLVAAITISGGTTYYSDSVKGRFTISRDNAKNTVYLQMISLKPEDTAVYYCADYHRDRNSGFDYWGQGTQVTVSS”, the “polyreactivity (PSR sort gate)” value was “high polyreactivity”.
The entry for “QVQLVESGGGLVQAGGSLRLSCAASGSIYQNAMGWYRQAPGKQRELVAAITSSGGRTYADSVKGRFTISRDNAKNTVYLQMNSLIPEDTAVYYCAKDSTADELNGFDYWGQGTQVTVSS” is “low polyreactivity”; for “QVQLVESGGGLVQAGGSLRLSCAASGSIYRRNAMGWYRKAPRKERELVAAISSNGGSTYYADSVKGRFTISRDNAMNTVYLQMNSLKPEDSAVYYCAASPSGWRYDYWGQGTQVTVSS” it is “high polyreactivity”.
Regarding “QVQLVESGGGLVQAGGSLRLSCAASGSIYRTNAMGWYRQAPGKERELVAAITGSGGSTYYADSVKGRFTISRDNAKNTVYLQMNSLKPEDTAVYYCAAEFGSFVSPYNYYYWGQGTQVTVSS”, the “polyreactivity (PSR sort gate)” value is “low polyreactivity”.
The entry for “QVQLVESGGGLVQAGGSLRLSCAASGSIYRYAMGWYRQAPGKEREFVAAITGGSGSTYYADSVKGRFTISRDNAKNTVYLQMNSLKPEDTAVYYCAASIWRGLTPLLIGFDYWGQGTQVTVSS” is “high polyreactivity”; for “QVQLVESGGGLVQAGGSLRLSCAASGSIYRYNDMGWYRQAPGKERELVATITSGTNTYYADSVKGRFTISRDNAKNTVYLQMNSLKPEDTAVYYCAKSYIAWDGRTFEEMYYWGQGTQVTVSS” it is “low polyreactivity”.
The entry for “QVQLVESGGGLVQAGGSLRLSCAASGSIYRYYDMGWYRQAPGKERELVAAITYSGGGTYYADSVKGRFTISRDNAKNTVYLQMNSLKPEDTAVYYCAAEPYYGWKRLDYWGQVTQVTVSS” is “low polyreactivity”; for “QVQLVESGGGLVQAGGSLRLSCAASGSIYSHYAMGWYRQAPGKERELVAAITKSGSTTYYADSVKGRFTSSRDNAKNTVYLQMNSLKPEDTAVYDCWGQGTQVTVSS” it is “low polyreactivity”; for “QVQLVESGGGLVQAGGSLRLSCAASGSIYSNAMGWYRPAPGKERELVAAISGSGSTTYYADSVKGRFTISRDNAKNTVYLQMNSLKPEDTAVYYCARGVYGRGRTERYYWGQGTQVIVSS” it is “high polyreactivity”.
As for “QVQLVESGGGLVQAGGSLRLSCAASGSIYSTYAMGWYRQAPGKERELVAAITSDGTYADSVKGRFTISRDNARNTVYLQMNSLKPEDTAVYYCAAYYPYTRHGDYWGQGTQVTVSS”, the “polyreactivity (PSR sort gate)” value is recorded as “low polyreactivity”.
On to “QVQLVESGGGLVQAGGSLRLSCAASGSIYTNAMGWYRQAPGKERELVAAISWSGGRTYYADSVKGRFTISRDNAKNTVYLQMNSLKPEDTAVYYCAADYYYSQVAYDYWGQGTQVTVSS”, for which the “polyreactivity (PSR sort gate)” value is “high polyreactivity”.
The entry for “QVQLVESGGGLVQAGGSLRLSCAASGSIYVKGWYRQAPGKERELVAAISTNGGRTYYADSVKGRFTISRDNAKITVYLQLTSLKPEDTAVYYCAVRTTPKTRRFYYWGQGTQVTVSS” is “high polyreactivity”; for “QVQLVESGGGLVQAGGSLRLSCAASGSIYVNAMGWYRQEPGKERELVAVISKSGGSTYYADSVKGRFTISRDNAKNTVYLQMNSLKPEDTAVYYCATRGVSPSRPGYYWGQGTKVTVSS” it is “high polyreactivity”.
The entry for “QVQLVESGGGLVQAGGSLRLSCAASGSIYWYAMGWYRQAPGKERELVAAISRRGGSTYYADSVKGRFTISRDNDKNTVYLQMNSLKPEDTAVYYCAVGIYGEYDYWGQGTQVTVSS” is “high polyreactivity”; for “QVQLVESGGGLVQAGGSLRLSCAASGSIYYAMGWYRQAPGKEREFVAAINSGGSTYYADSVKGRFTISRDNAKNTVYLQMNSLKPEDTAVYYCAADVWTPYLMSLKYGYDYWGQGTQVTVSS” it is “low polyreactivity”.
The entry for “QVQLVESGGGLVQAGGSLRLSCAASGSIYYNAMGWYRQAPGKERELVAGITWSGGSTYYADSVKGRFTISRDNAKNTVYLQMNSLKPEDTAVYYCAADFVYLGTHYGAYDYWGQGTQVTVSS” is “low polyreactivity”.
Consider “QVQLVESGGGLVQAGGSLRLSCAASGSLFGDYVMGWSRQAPGKERELVAAINRGGSTYYADSVKGRFTISRDNAKNTVYLQMNSLKPEDTAVYYGAAGYPSWYYGYPYDSWGQGTQVTVSS”, for which the “polyreactivity (PSR sort gate)” value is recorded as “low polyreactivity”.
The entry for “QVQLVESGGGLVQAGGSLRLSCAASGSLFKRNAMGWYRQAPGKERELVAAITSSGGRTYYADSVKGRFTISRDNAKNTVYLLMNSLKPEDTAVYYCNKVRAGRDERRAGDYWGQGTQVTVSS” is “high polyreactivity”; for “QVQLVESGGGLVQAGGSLRLSCAASGSLFKYYAMGWYRQAPGKERELVAAITIGGNTNYADSVKGRFTISRDNAKNTVYLQMNSLKPEDTAVYYCATGGYYSAIVYGGYDYWGQGTQVTVSS” it is “low polyreactivity”; for “QVQLVESGGGLVQAGGSLRLSCAASGSLFRYYVMGWYRQAPGKERELVAAISSRGGSTYYADSVKGRFTISRDNAKNSVYLLMNSLKPEDTAFYYCAARFGGWDRGLDYWGQGTLVTVSS” it is “high polyreactivity”.
The entry for “QVQLVESGGGLVQAGGSLRLSCAASGSLFSWYTKGWYRQAPGKERELVAAISRSGGRTYYADSVKGRFTISRDNAKNTVYLQMNSLKPEDTAVYSCAARVYSYYGSRGQRYDYWGQGTQVTVSS” is “high polyreactivity”; for “QVQLVESGGGLVQAGGSLRLSCAASGSLFYINAMGWYRQAPGKERELVAAITSDGSTYYADSVKGRFTISRDNAKNTVYLQMNSLKPEDTAVYYCAADLTSDQYLYYWYWFYSWGQGTQVTVSS” it is “low polyreactivity”.
The entry for “QVQLVESGGGLVQAGGSLRLSCAASGSMFYKNAMVWYRQAPGKEREMVAAINSVGSTDYADSVKGRFTISRDNAKNTVYLQMNSLTPEDTAVYYCAATNLFTIIDYDYWGQGTQVTVSS” is “low polyreactivity”; for “QVQLVESGGGLVQAGGSLRLSCAASGSMFYYYAMGWYRQPPGKERELVAAISSGGVGSTTYADSVKGRFTISRDNAKNTVYLQMNSLKPEDTAVYYCNADRPGYFYFYFNYWGQGTQVTVSS” it is “high polyreactivity”.
For “QVQLVESGGGLVQAGGSLRLSCAASGSNFAVYAMGWYRQAPGKERELVATIRWNGGSTYYADSVKGRFTISRDNAKNTVYLQMNSLKQEDTAVYYCAKEYSTYVSKKSAYRYYYWGQGTQVTVSS”, the “polyreactivity (PSR sort gate)” value is recorded as “high polyreactivity”.
The entry for “QVQLVESGGGLVQAGGSLRLSCAASGSNFDFYAMGWYRQAPGKERELVAAISSSGTSTYYADSVKGRFTISRDNAKNTVYLQMNSLKPEDTAVYYCAAVYSRSGYTWREYGYWGQGTQVTVSS” is “low polyreactivity”.
The entry for “QVQLVESGGGLVQAGGSLRLSCAASGSNFDIYGMGWYRQAPGKERELVASISGGAGSTNYADSVKGRFTISRDNAKNTVYLQMNSLKPEDTAVYYCAAEVYVPDSFQHKFDVEYEYWGQGTQVTVSS” is “low polyreactivity”; for “QVQLVESGGGLVQAGGSLRLSCAASGSNFDTYAMGRYRQAPGKERELVAAITRRAGSTYYADSVKGRFRISRDNAKNTVYLQMNSLKPEDTSVYYCAADFRYPDIYGGYDYWGQGTQVTVSS” it is “low polyreactivity”.
The entry for “QVQLVESGGGLVQAGGSLRLSCAASGSNFENYAMGWYRQAPGKERELVAAISSNGGSTYYADSVKGRFTLSRDKAKNTVYLQKNSLKPEDTAVYYCNKGRYYRQIYDYWGQGTQVTVSS” is “high polyreactivity”; for “QVQLVESGGGLVQAGGSLRLSCAASGSNFFSYAMGWYREAPGKERELVAAIDYSGGGTYYADSVKGRFTISRDNAKNTVYLQMNSLKPEDTAVYYCNSDTEVWADTFISYRALNYWGQGTQVTVSS” it is “low polyreactivity”; for “QVQLVESGGGLVQAGGSLRLSCAASGSNFGKYAMGWYRPAPGKERELVATITRRGGSTYYADSVKGRFTISRDNAKNTVYLQMNSLKPEDSAVYYCAKRSNGYVDYGYWGQGTQVTVSS” it is “high polyreactivity”.
On to “QVQLVESGGGLVQAGGSLRLSCAASGSNFHPNGMGRYRQAPRTERELVAAIRRSGGSTYYADSVKGRFTISRDNAKNTVYLQMISLKAEDTAVYYCAAKHYYYSRYVRYDPPPGYYWGQGTQVTVSS”, for which the “polyreactivity (PSR sort gate)” value was “high polyreactivity”.
The entry for “QVQLVESGGGLVQAGGSLRLSCAASGSNFKTYVMGWSRQAPGKERELVAAITSSGGRTYYADSVKGRFTISRDNAKNSVYLQMNSLKPEDTAVYYCNTAPRWVGRNDYWGQGTQVTVSS” is “high polyreactivity”; for “QVQLVESGGGLVQAGGSLRLSCAASGSNFLKNAMGWYRQAPGKERELVAAITSGGSTYYADSVKGRFTISRDNAKNTVYLQMNSLKPEDTAVYYCADETSPSWYTWVTYDYWGQGTQVTVSS” it is “high polyreactivity”.
